This is an account of results in patent US20140289906A1, “Compositions Having Dicamba Decarboxylase Activity and Methods of Use” (priority 2013, published 2014).

A short description of data set [1]: 14C assay: 14CO2 capture from [14C]-carboxyl-labeled dicamba with purified protein. Format: biochemical.
Data set [2] is described as follows: LC-MS/MS detection of 4-chloro-3-methoxy phenol. Type of data set: biochemical. The note with it: purified protein, dicamba. As to the method: The decarboxylated and chloro hydrolyzed product, 4-chloro-3-methoxy phenol (FIG. 1D), is measured using a LC-MS/MS analytical procedure. […] 10 ul is removed from the reaction mixture and mixed with 90 ul pre-chilled methanol followed by centrifugation at 14,000 rpm for 15 min at 4° C. 10 ul of the supernatant is then transferred into 170 ul ddH2O to achieve 5% methanol solution for injection. 50 ul of the prepared sample is injected into a 4000 Q Trap LC-MS/MS system for sample analysis. LC-MS/MS parameters are: Mobile Phase A, 2 mM ammonium acetate in water; Mobile Phase B, 2 mM ammonium acetate in methanol; Column, Aquasil, 100×2.1 mm, 3 μm, C18 column; Flow Rate, 0.6 ml/min. The MS/MS fragment 157/142 which is common to 4-chloro-3-methoxy phenol, 2-chloro-5-methoxy phenol, and 3-chloro-5-methoxy phenol is monitored at a retention time of 2.88 min.

Data set [3] in a line: GC/MS detection of 2,5-dichloro phenol (2,5-DCP); kinetic determination. Type of data set: biochemical. The note with it: purified protein, dicamba. As to the method: The decarboxylated and demethylated product of dicamba, 2,5-dichloro phenol or 2,5-DCP (FIG. 1E) is measured using a GC/MS analytical procedure with either liquid injection after liquid/liquid extraction using toluene as the extraction solvent or gas injection using head space method. The head space sample analysis is carried out on an Agilent GC/MS system with a 6890A GC, a 5973N MSD and a CTC CombiPAL auto-sampler or with a 7890A GC, a 5975C MSD and an Agilent GC Sampler 80 auto-sampler with Phenomenex ZB-MultiResidue-1 column (30 m length, 0.25 mm diameter, 0.25 um film) or equivalent. GC/MS parameters are: GC inlet temperature, 200° C.; Carry gas, helium in constant flow mode (1.2 mL/min); Oven temperature program, 70° C. for 1 min and then ramp to 275° C. at 40° C./min. […] The reaction vial is transferred to a agitator for incubation at 90° C. for 4 min at 500 rpm. With a syringe preheated at 110° C., 1000 uL of head space is injected with sample fill speed at 100 uL/sec. A 2-mm diameter liner is used in sample inlet. The MS data acquisition is done in SIM (selected ion monitoring) mode. The positive ion at M/Z 162 for the molecular ion of 2,-5-DCP is monitored at retention time of 4.06 min. Solvent delay for MS acquisition is set at 3 min. GC/MS parameters for liquid sample analysis are the same as those for head space analysis, except that the volume of liquid injection is 1 uL.

A short description of data set [4]: Dicamba decarboxylation activity of computationally designed protein variants and parents (Tables 4, 5). Particulars: for dicamba decarboxylase activity (statement in the description): native proteins and designed variants, assay not specified; for Percent Activity Improvement Over Parent (%): parent (SEQ ID NO: 1 or SEQ ID NO: 41) = 100.
Data set [5] can be described thus: 14C assay: 14CO2 capture from [14C]-carboxyl-labeled dicamba with IPTG-induced recombinant E. coli cells. Particulars: for Enzymatic Detection level: dicamba decarboxylation activity; for Dicamba Decarboxylase Activity: IPTG-induced recombinant E. coli cells, 14CO2 from [14C]-carboxyl-labeled dicamba; for decarboxylation activity of dicamba: among the 108 sequences tested, recombinant E. coli cell assay.

Where a chain is given by its changes, count along the chain named. Entries after “also recorded” stand apart in the source; their conditions may differ.

B1: 114 (protein)
chain: MAQGKVALEEHFAIPETLQDSAGAVPGDYWKELQHRLLDIQDTRLKLMDAHGIETMILSLNAPAVQAIPDRRKAIEIARRANDVLAEECAKRPDRFLAFAALPLQDPDAATEELQRCVNDLGFVGALVNGFSQEGDGQTPLYYDLPQYRPFWGEVEKLDVPFYLHPRNPLPQDSRIYDGHPWLLGPTWAFAQETAVHALRLMASGLFDEHPRLNIILGHMGEGLPYMMWRIDHRVAWVKLPPRYPAKRRFMDYFNENFHITTSGNFRTQTLIDAILEIGADRILFSTDWPFENIDHASDWFNATSIAEADRVKIGRTNARRLFKLDGA
modifications: Dicamba decarboxylase variant clone DC.4.116
On to B1, for which the CO2 product detected entry in data set [1] was “detected”. The “4-chloro-3-methoxy phenol product detected” value in data set [2] is “detected”. The “2,5-DCP product detected” value in data set [3] was “detected”. Besides, the “dicamba decarboxylase activity (statement in the description)” value in data set [4] is “displays an increase in dicamba decarboxylase activity”. Further, the “Enzymatic Detection level” value in data set [5] is reported as “High”.

B2: 109 (protein)
chain: B1 chain with A24F
modifications: Dicamba decarboxylase variant clone DC.4.032
As for B2, the CO2 product detected result in data set [1] is “detected”. In addition, the “4-chloro-3-methoxy phenol product detected” value in data set [2] is “detected”. In addition, in data set [3], the “2,5-DCP product detected” value is listed as “detected”. In addition, in data set [4], the “dicamba decarboxylase activity (statement in the description)” value is on record as “more active than their parent sequence; also recorded: displays an increase in dicamba decarboxylase activity”. For the same molecule, in data set [5], the “Enzymatic Detection level” value is given as “High”.

B3: 108 (protein, listed as Staphylococcus aureus)
chain: MAKSITFEEHYVIEDIQKETMNAISADPKGVPMKVMLEGLEKKTGFTNADELSHHDERIQFMNNQDVQIQVLSYGNGSPSNLVGQKAIELCQKANDQLANYIAQYPNRFVGFATLPINEPEAAAREFERCINDLGFKGALIMGRAQDGFLDQDKYDIIFKTAENLDVPIYLHPAPVNSDIYQSYYKGNYPEVTAATFACFGYGWHIDVGIHAIHLVLSGIFDRYPKLNMIIGHWGEFIPFFLERMDEALFAEHLNHSVSYYFKNSFYITPSGMLTKPQFDLVKKEVGIDRILYAADYPYIEPEKLGVFLDELGLTDEEKEKISYTNGAKLLGLSSNN
With B3, in data set [1], the CO2 product detected entry is reported as “detected”. Besides, in data set [2], the “4-chloro-3-methoxy phenol product detected” value was “detected”. Besides, in data set [3], the “2,5-DCP product detected” value is “detected”. In data set [5], the “Dicamba Decarboxylase Activity” value is recorded as “High”, the “decarboxylation activity of dicamba” value is on record as “showed decarboxylation activity of dicamba” and the “Enzymatic Detection level” value is “High”.

B4: 32 (protein)
chain: MARIIAIEEHFLDLDIARASRPEAERLSPAFAAAYGAGQGYNYSPAPEVLLDLEEGRVADMDAHGISMQVLSSLSTQQLPADVAVELVRKVNDRAAAAVAARPDRFAAFAALPTTVPEAAADELDRAVGELGFVGSMINGRTGDAFLDAPRFDAVLRRSAELRVPVYLHPGVPPVETSRSNYEGGLDPIVTARLQTSAWGWHVETGIHFLHLVLAGVFDRYPDLQVILGHWGEMVPFFLERIEEALPQQITHLDRPVGAYFRENAHITPSGMFSQAQLQFCVETVGIERIMFSVDYPFLGNDGAEAFLRQANLPPLATEKIAHLNAERLLALPS
modifications: Streptomyces violaceusniger
As for B4, the CO2 product detected entry in data set [1] is listed as “detected”. In addition, the “4-chloro-3-methoxy phenol product detected” value in data set [2] was “detected”. Besides, in data set [3], the “2,5-DCP product detected” value is listed as “detected”. Besides, in data set [5], the “Dicamba Decarboxylase Activity” value was “High”, the “decarboxylation activity of dicamba” value was “showed decarboxylation activity of dicamba” and the “Enzymatic Detection level” value is “High”.

B5: 41 (protein, listed as Polaromonas sp.)
chain: MANGKIALEEHFATEETLMDSAGFVPDKDWPELRSRLLDIQDRRVRLMDEHGIETMILSLNAPAVQAIADSTRANETARRANDFLAEQVAKQPTRFRGFAALPMQDPELAARELERCVKELGFVGALVNGFSQDNRSAVPLYYDMAQYWPFWETVQALDVPFYLHPRNPLPSDARIYDGHAWLLGPTWAFGQETAVHALRLMGSGLFDKYPALKIILGHMGEGLPYSMWRIDHRNAWIKTTPKYPAKRKIVDYFNENFYLTTSGNFRTQTLIDAILEIGADRILFSTDWPFENIDHAADWFENTSISEADRKKIGWGNAQNLFKLNR
Regarding B5, the CO2 product detected result in data set [1] is on record as “detected”. The “4-chloro-3-methoxy phenol product detected” value in data set [2] was “detected”. Moreover, the “2,5-DCP product detected” value in data set [3] is on record as “detected”. Moreover, in data set [4], the “dicamba decarboxylase activity (statement in the description)” value was “natural activity; also recorded: native dicamba decarboxylase activity” and the “Percent Activity Improvement Over Parent (%)” value came out at 100%. Further, in data set [5], the “Dicamba Decarboxylase Activity” value is “High”, the “decarboxylation activity of dicamba” value is “showed decarboxylation activity of dicamba” and the “Enzymatic Detection level” value is “High”.

B6: 115 (protein)
chain: MAQGKVALEEHFAIPDTLTTYTTSGDYEKELKHRLLDIQDTRLKLMDAHGIETMILSLNAPGVQAIPDRRKAIEIARRANDVLAEECAKRPDRFLAFAALPLQDPDAATEELQRCVNDLGFVGALVNGFSQEGDGQTPLYYDLPQYRPFWGEVEKLDVPFYLHPRNPLPQDSRIYDGHPWLLGPTWAFAQETAVHALRLMASGLFDEHPRLNIILGHMGEGLPYMMWRIDHRNAWVKTPPRYPAKRRFMDYFNENFHITTSGNFRTQTLIDAILEIGADRILFSTDWPFENIDHASDWFNATSIAEADRVKIGRTNARRLFKLDGA
modifications: Dicamba decarboxylase variant clone DC.4.161
For B6, the CO2 product detected entry in data set [1] is recorded as “detected”. Also, in data set [2], the “4-chloro-3-methoxy phenol product detected” value is on record as “detected”. Also, in data set [3], the “2,5-DCP product detected” value is “detected”. For the same molecule, in data set [4], the “dicamba decarboxylase activity (statement in the description)” value is on record as “displays an increase in dicamba decarboxylase activity”. In addition, in data set [5], the “Enzymatic Detection level” value is reported as “High”.

B7: 116 (protein)
chain: MAQGKVALEEHFAIPETLQDAAGFVPGDYWKELQHRLLDIQDRRVRLMDEHGIETMILSLNAPAVQAIADSTRANETARRANDFLAEQVAKQPTRFRGFAALPMQDPELAARELERCVKELGFVGALVNGFSQDNRSAVPLYYDMAQYWPFWETVQALDVPFYLHPRNPLPSDARIYDGHAWLLGPTWAFGQETAVHALRLMGSGLFDKYPALKIILGHMGEGLPYSMWRIDHRNAWIKTTPKYPAKRKIVDYFNENFYLTTSGNFRTQTLIDAILEIGADRILFSTDWPFENIDHAADWFENTSISEADRKKIGWGNAQNLFKLNR
modifications: Dicamba decarboxylase variant clone DC.30.007
Regarding B7, the CO2 product detected result in data set [1] was “detected”. For the same molecule, in data set [2], the “4-chloro-3-methoxy phenol product detected” value is listed as “detected”. For the same molecule, the “2,5-DCP product detected” value in data set [3] is reported as “detected”. In data set [4], the “dicamba decarboxylase activity (statement in the description)” value is listed as “improved dicamba decarboxylase activity; also recorded: displays an increase in dicamba decarboxylase activity” and the “Percent Activity Improvement Over Parent (%)” value is 220%. The “Enzymatic Detection level” value in data set [5] is given as “High”.
